Results reported in the DeepSol protein solubility set.

experiment: soluble on expression in E. coli; label from the status in PepcDB or PDB records

Sequence	soluble on expression in E. coli
MRLDGKTALITGSARGIGRAFAEAYVREGARVAIADINLEAARATAAEIGPAACAIALDVTDQASIDRCVAELLDRWGSIDILVNNAALFDLAPIVEITRESYDRLFAINVSGTLFMMQAVARAMIAGGRGGKIINMASQAGRRGEALVGVYCATKAAVISLTQSAGLNLIRHGINVNAIAPGVVDGEHWDGVDAKFADYENLPRGEKKRQVGAAVPFGRMGRAEDLTGMAIFLATPEADYIVAQTYNVDGGNWMS	soluble
MLVVLAISLAVTAVCAQYGSGPANNPPASSYSSNVYYPPPVYGSVYWDYDSGSREHRHKQCPRLRAYVGEFPGIPEEAFYPPIIRYVKYNRKVTALVVCDRDEKNLNFLFARHNKTRDVRSASVVAIGSTAGVTLVCNRDDRRYEGFVIDMNATTNGFSKKIEITQLTCLGLDKTIIGLPVEHGVQQLAQKIQEILEDDFFVPVIPSRRKRQAGGATANSAESTTEAADTESTTEAAATETPAAESTTTEASATDAAATEASATDAAATEGAVTKAAAGVTEESATEVITVATTPASPDAALNNAINELGKILGQVF	not soluble
MYVVKSANDGGNSLFLSSSDIVNQLSKTETGKKHLKTLTGNLYPFKTPASFDKKQGVRWGNILSVNTQMIRFRSDCIYKGIEENRNKVSKEMVLALDYLINVIKNASDIQEFSAQDDGLIIIDNVNGLHARTDYTDKNRHYIRARITV	not soluble
MAHHHHHHMCAKLRDSANISSLRKERDCWQREVARVSDAVRVLCGGANICSNVESPTEWAESLCEAVQDGQAALVCLSLELWTGGTWAGIQGFKEQLTAYVGACASAAKEAAERVEALEVEVLRLKESEASLSARCENTEAHARNVEEDLKRASTQAERVSELEQETSDLRTRCNLLRKELQRQREAMQRDRPQPHETANSETAASPITENASAVQSVLLAAAGCVSERDVATFVGSRGSQDGSLKLSKVGAELLIKENAELKRENAHNNGVIAQYIRELEGYKANERVQLSIEYLRNIVQQYLCAAEDLRPKMIPAICTVLEFSSKQKEDVQTANPRCPRFH	soluble
AEPAGRQRPRREPEAMDEQSVESIAEVFRCFICMEKLRDARLCPHCSKLCCFSCIRRWLTEQRAQCPHCRAPLQLRELVNCRWAEEVTQQLDTLQLCSLTKHEENEKDKCENHHEKLSVFCWTCKKCICHQCALWGGMHGGHTFKPLAEIYEQHVTKVNEEVAKLRRRLMELISLVQEVERNVEAVRNAKDERVREIRNAVEMMIARLDTQLKNKLITLMGQKTSLTQETELLESLLQEVEHQLRSCSKSELISKSSEILMMFQQVHRKPMASFVTTPVPPDFTSELVPSYDSATFVLENFSTLRQRADPVYSPPLQVSGLCWRLKVYPDGNGVVRGYYLSVFLELSAGLPETSKYEYRVEMVHQSCNDPTKNIIREFASDFEVGECWGYNRFFRLDLLANEGYLNPQNDTVILRFQVRSPTFFQKSRDQHWYITQLEAAQTSYIQQINNLKERLTIELSRTQKSRDLSPPDNHLSPQNDDALETRAKKSACSDMLLEGGPTTASVREAKEDEEDEEKIQNEDYHHELSDGDLDLDLVYEDEVNQLDGSSSSASSTATSNTEENDIDEETMSGENDVEYNNMELEEGELMEDAAAAGPAGSSHGYVGSSSRISRRTHLCSAATSSLLDIDPLILIHLLDLKDRSSIENLWGLQPRPPASLLQPTASYSRKDKDQRKQQAMWRVPSDLKMLKRLKTQMAEVRCMKTDVKNTLSEIKSSSAASGDMQTSLFSADQAALAACGTENSGRLQDLGMELLAKSSVANCYIRNSTNKKSNSPKPARSSVAGSLSLRRAVDPGENSRSKGDCQTLSEGSPGSSQSGSRHSSPRALIHGSIGDILPKTEDRQCKALDSDAVVVAVFSGLPAVEKRRKMVTLGANAKGGHLEGLQMTDLENNSETGELQPVLPEGASAAPEEGMSSDSDIECDTENEEQEEHTSVGGFHDSFMVMTQPPDEDTHSSFPDGEQIGPEDLSFNTDENSGR	soluble
MSLAILPPDSLETALSQAQQATQAALQAGKNRLQIEILLPDLNPMGLAAGYLPLFAELGSDLKVFFADAGSAALARREWGETAYSVRGVNERLTPIEASDRAIVIVAPTPVEVTAIEQMCLTAGDRPFIMLNPRLQDVAVVGIGYAGRQLRERFLNTLEPCYYLRPLAETVILWRCYPQAWQIWQYRETAPTCLAEFEQRPTSEDIERALSALGKPRAQSFLSRLSALLRALQSEGHHHHHH	soluble
MQHHKVAIIGAGAAGIGMAITLKDFGITDVIILEKGTVGHSFKHWPKSTRTITPSFTSNGFGMPDMNAISMDTSPAFTFNEEHISGETYAEYLQVVANHYELNIFENTVVTNISADDAYYTIATTTETYHADYIFVATGDYNFPKKPFKYGIHYSEIEDFDNFNKGQYVVIGGNESGFDAAYQLAKNGSDIALYTSTTGLNDPDADPSVRLSPYTRQRLGNVIKQGARIEMNVHYTVKDIDFNNGQYHISFDSGQSVHTPHEPILATGFDATKNPIVQQLFVTTNQDIKLTTHDESTRYPNIFMIGATVENDNAKLCYIYKFRARFAVLAHLLTQREGLPAKQEVIENYQKNQMYLDDYSCCEVSCTCLEHHHHHH	soluble
MIVGSHQQYVVPSYSAAYVPSAYAYPSVYSPYVAAAAYPSVWAWGSNKNKDDAAPRAFARPSALLNNQKPTTA	not soluble
SLMVPVEIRWQQGGSKVYVTGSFTKWRKMIGLIPDSDNNGSFHVKLRLLPGTHRFRFIVDNELRVSDFLPTATDQMGNFVNYIEVRQPEKNPTNEKIRSKEADSMRPPTSDRSSIALQIGKDPDDFGDGYTRFHEDLSPRPPLEYTTDIPAVFTDPSVMERYYYTLDRQQSNTDTSWLTPPQLPPQLENVILNKYYATQDQFNENNSGALPIPNHVVLNHLVTSSIKHNTLCVASIVRYKQKYVTQILYTPI	soluble
MGSDKIHHHHHHMDQQTVLPEQDHDKSAIDELDFSCHSSGNFPGILAGLKLSLVVTSYQAHRLFFVRSNGIQIDVNFKNFVRPMGISVTPQQITLGTLNQVWRFRRSDDALALLDDPHADACYVASACHTTGLINIHDIAYGNKGLWVTNSAFSCLATLEPDYSFVPRWKPDFISALAPEDRCHLNGMALLDGEPAYVTTFNQSDTARSWRDGAKDQGTLINIKTGEQIFSNLTMPHSPRCYNGYVYFCESGHGLVRRYDPRTNEVVDVVKLAGFTRGMDFFGPLMFVGLSKTRFSSVAEPAPIAQQLEESQSGIWCINLTDHSVVGFVRFEGNIDQIYDVAVLSGVMYPELLLPDDELSMSVFNFPPLSYASEN	not soluble
MGHHHHHHSHMYKFCANALKVILSLRGGVKVYNKENLPADSGFVIACTHSGWVDVITLGVGILPYQIHYMAKKELFQNKWIGSFLKKIHAFPVDRENPGPSSIKTPIKLLKEGEIVGIFPSGTRTSEDVPLKRGAVTIAQMGKAPLVPAAYQGPSSGKELFKKGKMKLIIGEPLHQADFAHLPSKERLAAMTEALNQRIKELENKLDQL	soluble
PVMHPHGAPPNHRPWQMKDLQAIKQEVSQAAPGSPQFMQTIRLAVQQFDPTAKDLQDLLQYLCSSLVASLHHQQLDSLISEAETRGITSYNPLAGPLRVQANNPQQQGLRREYQQLWLAAFAALPGSAKDPSWA	soluble
GSHMTTSSRYKTELCRTYSESGRCRYGAKCQFAHGLGELRQANRHPKYKTELCHKFKLQGRCPYGSRCHFIHNPTED	soluble
MSLNVQTVAVIGSGTMGAGIAEVAASHGHQVLLYDISAEALTRAIDGIHARLNSRVTRGKLTAETCERTLKRLIPVTDIHALAAADLVIEAASERLEVKKALFAQLAEVCPPQTLLTTNTSSISITAIAAEIKNPERVAGLHFFNPAPVMKLVEVVSGLATAAEVVEQLCELTLSWGKQPVRCHSTPGFIVNRVARPYYSEAWRALEEQVAAPEVIDAALRDGAGFPMGPLELTDLIGQDVNFAVTCSVFNAFWQERRFLPSLVQQELVIGGRLGKKSGLGVYDWRAEREAVVGLEAVSDSFSPMKVEKKSDGVTEIDDVLLIETQGETAQALAIRLARPVVVIDKMAGKVVTIAAAAVNPDSATRKAIYYLQQQGKTVLQIADYPGMLIWRTVAMIINEALDALQKGVASEQDIDTAMRLGVNYPYGPLAWGAQLGWQRILRLLENLQHHYGEERYRPCSLLRQRALLESGYESEGHHHHHH	soluble
MLPSAQVARLKPDPFPPSLSPIPHGAVTFAALAPCHNLPIFSSRQMLRDSLTYSHTSPTMSPQIANRFEASLDAQDIARISLFTLESGVILRDVPVAYKSWGRMNVSRDNCVIVCHTLTSSAHVTSWWPTLFGQGRAFDTSRYFIICLNYLGSPFGSAGPCSPDPDAEGQRPYGAKFPRTTIRDDVRIHRQVLDRLGVRQIAAVVGASMGGMHTLEWAFFGPEYVRKIVPIATSCRQSGWCAAWFETQRQCIYDDPKYLDGEYDVDDQPVRGLETARKIANLTYKSKPAMDERFHMAPGVQAGRNISSQDAKKEINGTDSGNSHRAGQPIEAVSSYLRYQAQKFAASFDANCYIAMTLKFDTHDISRGRAGSIPEALAMITQPALIICARSDGLYSFDEHVEMGRSIPNSRLCVVDTNEGHDFFVMEADKVNDAVRGFLDQSLM	soluble
MSKEDFVIKPEAAGASTDTSEWPLLLKNFDKLLVRSGHYTPIPAGSSPLKRDLKSYISSGVINLDKPSNPSSHEVVAWIKRILRCEKTGHSGTLDPKVTGCLIVCIDRATRLVKSQQGAGKEYVCIVRLHDALKDEKDLGRSLENLTGALFQRPPLISAVKRQLRVRTIYESNLIEFDNKRNLGVFWASCEAGTYMRTLCVHLGMLLGVGGHMQELRRVRSGALSENDNMVTLHDVMDAQWVYDNTRDESYLRSIIQPLETLLVGYKRIVVKDSAVNAVCYGAKLMIPGLLRYEEGIELYDEIVLITTKGEAIAVAIAQMSTVDLASCDHGVVASVKRCIMERDLYPRRWGLGPVAQKKKQMKADGKLDKYGRVNENTPEQWKKEYVPLDNAEQSTSSSQETKETEEEPKKAKEDSLIKEVETEKEEVKEDDSKKEKKEKKDKKEKKEKKEKKDKKEKKEKKEKKRKSEDGDSEEKKSKKSKK	not soluble
MRVVIVGAGLAGLAAAVDLVDAGHRVEIYESRPFVGGKVSSWQDADGNHIEMGLHVFFYNYANLFELMTKVGAIANLLPKEHTHTFINRGGQVGELDFRFPLGAPFNGLKAFFTTRQLSAADKFFNAIALGTSPVVRGLVDYEGAMRQIRALDCMSFAEWFRRHGGSENSLKRLWNPISYALGFIDTEHMSARCMLTIFMMFAAKTTASRLNMLKGSPAEYLLKPLVNYIEARGAKIHLRRRVKEILFRGEDASTWRVEGLVIPRGEALETVTADAYLCACDVPGIQRLIPEAWRSHPTFDNIFKLEAVPVATVQLRFDGWVTELQDPRKQKQVAATGIDNLLYTADADFSCFADLALTSPADYYREGQGSLLQVVLTPGDPFIKASNEEIAQHVLRQVHELFPSSRHLNMTWYSVVKLAQSLYREAPGMDPYRPPQKTPVPNFYLAGSYTQQDYIDSMEGATMSGRQAAQAILAGGHPLEHHHHHH	soluble
MTISNSNLLKPFITGTELPPFKEDVFSKTEEQFKKSTYGKSLFISGNENLVNISAEKIDEIKNSKNFFSNIVNIIILLIKHPDKILPILHGCPVESIEVIKNAKRTGQWSYEMTDKNGQSIEVSYIFTDTIDDKSDGKLCLKICNSCNQNDSSTHEYKIDHQQLKNHIRQLEEWALLEKFYDNNAYYSKRTKQLEKKIADAGFITRKVKAENFNVKEFKDDIASMLCEQPPMRTHQISSSGYVSADKLHKLYKTNLEDAQRDLKTTPVDIDGVSLKSITREKIAEEIAKKTAEIIAKQNAKSIEEKNIEKNKKQTNSEDNFVLKFSPEEINEMLLDYSDEEQKKLRPFFTSDHIYCLFDAFSQGLHNVARNGSPRYAGLLRQIASKSAILQDFDQQLFWRTFTGGVLHRHISVKSEPEKTDVWRFSSQFDFPHINENGELSRTVLMFEGVAESNFKDIANHSSECFSYRCYAAPLDANAKK	soluble
